Here are results for 1 molecule from patent US20250041389A1, “ENHANCING ABSORPTION OF DIETARY COMPOUNDS TO PROMOTE HEALTH” (ARIZONA BOARD OF REGENTS ON BEHALF OF THE UNIVERSITY OF …, priority 2023, published 2025).

Series [1] is described as follows: Oral gavage of GUSB followed by curcumin in mice; assay of curcumin metabolites in serum and bone. It is filed as in vivo, C57BI6 mice. As to conditions: after oral administration of GUSB with curcumin; FIG. 1. From the text:
Experimental Methods: Administer 140 U/g body weight of GUSB (E. coli-derived [Sigma G840]) orally via gavage (vs vehicle) to 10-week-old male C57BI6 mice.

A short description of series [2]: Enzymatic activity of orally administered enzyme after passage through proteolytic sections of the GI tract. As to conditions: oral administration. It is filed as in vivo.

B1: GUSB: Beta-glucuronidase enzyme; E. coli-derived [Sigma G840] in Example 1 (protein, UniProt P05804 1-603, looked up)
Beta-glucuronidase: MLRPVETPTREIKKLDGLWAFSLDRENCGIDQRWWESALQESRAIAVPGSFNDQFADADIRNYAGNVWYQREVFIPKGWAGQRIVLRFDAVTHYGKVWVNNQEVMEHQGGYTPFEADVTPYVIAGKSVRITVCVNNELNWQTIPPGMVITDENGKKKQSYFHDFFNYAGIHRSVMLYTTPNTWVDDITVVTHVAQDCNHASVDWQVVANGDVSVELRDADQQVVATGQGTSGTLQVVNPHLWQPGEGYLYELCVTAKSQTECDIYPLRVGIRSVAVKGEQFLINHKPFYFTGFGRHEDADLRGKGFDNVLMVHDHALMDWIGANSYRTSHYPYAEEMLDWADEHGIVVIDETAAVGFNLSLGIGFEAGNKPKELYSEEAVNGETQQAHLQAIKELIARDKNHPSVVMWSIANEPDTRPQGAREYFAPLAEATRKLDPTRPITCVNVMFCDAHTDTISDLFDVLCLNRYYGWYVQSGDLETAEKVLEKELLAWQEKLHQPIIITEYGVDTLAGLHSMYTDMWSEEYQCAWLDMYHRVFDRVSAVVGEQVWNFADFATSQGILRVGGNKKGIFTRDRKPKSAAFLLQKRWTGMNFGEKPQQGGKQ
B1: in series [1], the “enzyme levels in the body” value was “unchanged”. Further, the “enzymatic activity after passing through the proteolytic sections of the GI tract (stomach and duodenum)” value in series [2] is reported as “retain their enzymatic activity”.
